Here are results for 38 molecules from patent publication US20260242478A1 (published 2026).

Assay [1] deals with T1, Anti-CD28 scFv (VH - linker 1 - VL) (biotinylated (site not stated)). Put plainly: clonal phage ELISA on anti-CD28 scFv plate; wells pre-incubated with soluble CD28 as competitor. For orientation: ELISA stands for enzyme-linked immunosorbent assay.
The target of assay [2] is T1, Anti-CD28 scFv (VH - linker 1 - VL). Put plainly: clonal phage ELISA; biotinylated anti-CD28 scFv on neutravidin plate, bound phage detected with anti-M13 HRP.
For assay [3], the target named is T2, Anti-CD28 Fab (SEQ ID NOs: 696, 697).
T2 construct: In the phage ELISA the Fab was biotinylated and captured on neutravidin coated plates
Put plainly: phage binding ELISA on captured anti-CD28 Fab; wells pre-incubated with CD28 antigen as competitor.

Assay [4] has the same target. Nature of the assay: phage binding ELISA; biotinylated anti-CD28 Fab on neutravidin plate, clonal phage supernatant, anti-M13 HRP.
The target in assay [5] is anti-CD28 Fab. Put plainly: competition ELISA, peptide titrated 0-100 uM against 1 nM anti-CD28 Fab, plate-bound CD28 as competitor.
Assay [6] deals with T3, PSMA Fab.
T3 construct: also called 006 PSMA Fab; anti-PSMA Fab
Put plainly: BLI (Octet); PSMA Fab on sensor-loaded biotinylated peptide, 1:1 model. A general note: BLI is a label-free optical method that tracks binding on a fibre tip over time.

Assay [7] addresses T3, PSMA Fab. Put plainly: binding ELISA; PSMA Fab titrated on plate-captured biotinylated peptide.
For assay [8], the target named is T3, PSMA Fab. Put plainly: competition ELISA; peptide 0-100 µM with 0.3 nM PSMA Fab on plate-captured biotinylated PSMA.
Assay [9] has as its target Ab-15. Nature of the assay: BLI (Octet): biotinylated peptide on sensor, Ab-15 titrated, 1:1 model.
Assay [10] deals with Ab-15. Put plainly: binding ELISA: biotinylated peptide on neutravidin plate, Ab-15 titrated.
Assay [11] addresses Ab-15. Nature of the assay: BLI (Octet): sensor loaded with 200 nM biotinylated peptide, 100 nM Ab-15.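 Also: binding association and dissociation tracked in real time, fitted to a 1:1 binding model.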
For assay [12], the target named is Ab-15. Nature of the assay: competition ELISA: peptide titrated against 1 nM Ab-15; competitor plate-bound CD28.

Where no end group is shown, it is not given here.

B1: Phage-447 (peptide)
peptide: MDWCPRDRWDVCYY
notes: Clone of the Peptide-9 optimisation library
As for B1, the “CD28 scFv signal in presence of CD28” value in assay [1] stood at 0.073. Besides, in assay [2], the “CD28 scFv signal” value amounted to 0.074.

B2: Phage-446 (peptide)
peptide: MDWCPRDRWDDCFN
notes: as for B1
In the case of B2, in assay [1], the “CD28 scFv signal in presence of CD28” value stood at 0.077. Moreover, the “CD28 scFv signal” value in assay [2] amounted to 0.45.

B3: Phage-1351 (peptide)
peptide: TCAAGAHYPWPACL
notes: Clonal phage of the Peptide-92 library, tested as crude supernatant; not shown: fused to the pIII filament of the bacteriophage
Consider B3, for which the “Anti-CD28 Fab signal in the presence of CD28” value (“Anti-CD28 Fab signal” for short) in assay [3] turned out to be 0.07. In [4], the “Anti-CD28 Fab (SEQ ID NOs: 696, 697) signal” value is 1.92.

B4: Phage-1348 (peptide)
peptide: SCSAGAAYYWPWCL
notes: as for B3
Regarding B4, the “Anti-CD28 Fab signal” value in assay [3] stood at 0.09. Also, the “Anti-CD28 Fab (SEQ ID NOs: 696, 697) signal” value in assay [4] is 1.9.

As for YCMGHSHEHIWKCL [Peptide-97], the IC50 (commonly the midpoint of a concentration-inhibition curve) in assay [5] was 69100 nM.

B5: Peptide-286 (peptide)
peptide: VLKYCIPDWMCAGI
notes: From the Peptide-180 optimisation phage library
Regarding B5, in [6], the “Off rate t1/2” value came out at 3.3 min. In addition, the EC50 – broadly, the concentration that produces a half-maximal response – in [7] amounted to 4 nM. In [8], this molecule displayed an IC50 of 640 nM.

B6: Phage-453 (peptide)
peptide: MDWCPSDYWYVCFA
notes: as for B1
For the molecule B6, in [1], the “CD28 scFv signal in presence of CD28” value came to 0.08. For the same molecule, the “CD28 scFv signal” value in assay [2] was determined as 0.707.

B7: Phage-1347 (peptide)
peptide: TCSAGAHYPWPICL
notes: as for B3
For B7, in assay [3], the “Anti-CD28 Fab signal” value is 0.07. Also, the “Anti-CD28 Fab (SEQ ID NOs: 696, 697) signal” value in [4] worked out at 1.78.

B8: Peptide-284 (peptide)
peptide: TEVRCTPPWMCLGF
notes: as for B5
For the molecule B8, the “Off rate t1/2” value in [6] stood at 1.4 min. Also, the EC50 in assay [7] was found to be 20 nM. In addition, the IC50 in [8] amounted to 970 nM.

B9: Phage-1358 (peptide)
peptide: TCAAGAMWAWPVCL
notes: as for B3
B9: in assay [3], the “Anti-CD28 Fab signal” value came out at 0.09. The “Anti-CD28 Fab (SEQ ID NOs: 696, 697) signal” value in [4] stood at 2.32.

B10: Phage-451 (peptide)
peptide: MDWCPRFWWHECYA
notes: as for B1
Take B10: the “CD28 scFv signal in presence of CD28” value in assay [1] amounted to 0.503. In addition, in [2], the “CD28 scFv signal” value came out at 2.4.

Consider YCAGHMPQYEVKCL [Peptide-95], for which the IC50 in assay [5] turned out to be 43600 nM.

B11: Phage-445 (peptide)
peptide: MDWCPRARWHDCFF
notes: as for B1
As for B11, the “CD28 scFv signal in presence of CD28” value in assay [1] was 0.138. Also, the “CD28 scFv signal” value in assay [2] is 0.497.

As to KDWCPRDLWVHCFA (cysteine pairing not given here; also: biotinylated, site not given here, CD28 peptide mask) [Peptide-62], in assay [9], the affinity, expressed as Kd, was 26.1 nM and the t1/2 is 4.5 min. Besides, in assay [10], the midpoint of the response, the EC50, lay at 19.7 nM. In assay [11], this molecule returned an Octet signal of 1.13 and a t1/2 of 4 min. Also, in assay [12], the IC50 turned out to be 190 nM.

As to TDWCPRDLWVHCFA (cysteine pairing not given here; also: biotinylated, site not given here, CD28 peptide mask) [Peptide-66], in assay [9], binding was characterised by a dissociation constant (Kd) of 25.5 nM and the t1/2 amounted to 4.7 min. In assay [10], this molecule had an EC50 of 24 nM. In [11], the Octet signal is 1.34 and the t1/2 was 4.2 min. In assay [12], this molecule returned an IC50 of 590 nM.

B12: Peptide-282 (peptide)
peptide: IVVKCVPSWMCEGF
notes: as for B5
For the molecule B12, in assay [6], the “Off rate t1/2” value came to 1.9 min. The molecule also came in with an EC50 in [7] of 9.2 nM. Also, in assay [8], the IC50 came to 190 nM.

YCAGHSHEYLAKCE [Peptide-98]: in assay [5], the IC50 was determined as 7040 nM.

B13: Phage-1349 (peptide)
peptide: TCSAGATWAWPLCF
notes: as for B3
With B13, the “Anti-CD28 Fab signal” value in [3] is 0.09. Further, in assay [4], the “Anti-CD28 Fab (SEQ ID NOs: 696, 697) signal” value came to 2.31.

B14: Phage-449 (peptide)
peptide: MVDCPLISFDECLA
notes: as for B1
As for B14, in assay [1], the “CD28 scFv signal in presence of CD28” value was found to be 0.076. Moreover, in assay [2], the “CD28 scFv signal” value was 0.07.

B15: Phage-1355 (peptide)
peptide: LCSAGAMWPWPTCL
notes: as for B3
On to B15, for which the “Anti-CD28 Fab signal” value in assay [3] was 0.08. In addition, in assay [4], the “Anti-CD28 Fab (SEQ ID NOs: 696, 697) signal” value stood at 2.39.

B16: Phage-1346 (peptide)
peptide: TCSAGATYEWPRCL
notes: as for B3
With B16, in [3], the “Anti-CD28 Fab signal” value was found to be 0.06. Besides, the “Anti-CD28 Fab (SEQ ID NOs: 696, 697) signal” value in assay [4] was 1.84.

B17: Peptide-268 (peptide)
peptide: VEKVCKPVWMCVGF
notes: as for B5
Take B17: in assay [6], the “Off rate t1/2” value stood at 3 min. Further, the EC50 in assay [7] was determined as 5.1 nM. The molecule further came in with an IC50 in [8] of 250 nM.

B18: Phage-1345 (peptide)
peptide: SCSAGAHYPWPQCF
notes: as for B3
For B18, the “Anti-CD28 Fab signal” value in assay [3] was found to be 0.06. The “Anti-CD28 Fab (SEQ ID NOs: 696, 697) signal” value in assay [4] turned out to be 1.16.

Take YCAGHTEEHYVKCM [Peptide-96]: the half-inhibitory concentration (IC50) in assay [5] was determined as 7590 nM.

B19: Peptide-285 (peptide)
peptide: VERLCTPAWMCHGF
notes: as for B5
Regarding B19, the “Off rate t1/2” value in [6] stood at 1.1 min. Besides, the EC50 in assay [7] amounted to 25 nM. Besides, the IC50 in assay [8] was 710 nM.

B20: Phage-450 (peptide)
peptide: EDWCPTDVWPYCFS
notes: as for B1
On to B20, for which the “CD28 scFv signal in presence of CD28” value in [1] was 0.157. Moreover, the “CD28 scFv signal” value in assay [2] came to 0.711.

B21: Peptide-263 (peptide)
peptide: AVKACIPEWMCIGF
notes: as for B5
For the molecule B21, the “Off rate t1/2” value in assay [6] is 2.3 min. Also, the EC50 in [7] stood at 8.4 nM. In [8], this molecule had an IC50 of 620 nM.

B22: Peptide-283 (peptide)
peptide: TVAYCKPAWMCQGF
notes: as for B5
With B22, the “Off rate t1/2” value in assay [6] was 1.4 min. The same molecule came in with an EC50 in assay [7] of 7.8 nM. Moreover, in assay [8], the IC50 was found to be 820 nM.

B23: Phage-1356 (peptide)
peptide: LCSAGAMYSWPTCL
notes: as for B3
Regarding B23, the “Anti-CD28 Fab signal” value in assay [3] worked out at 0.12. Besides, the “Anti-CD28 Fab (SEQ ID NOs: 696, 697) signal” value in assay [4] is 2.39.

B24: Phage-452 (peptide)
peptide: MDWCPRDWWHMCFN
notes: as for B1
B24: in [1], the “CD28 scFv signal in presence of CD28” value came out at 0.243. Also, the “CD28 scFv signal” value in [2] was 2.12.

B25: Phage-443 (peptide)
peptide: MDWCPMTRWNDCYF
notes: as for B1
On to B25, for which the “CD28 scFv signal in presence of CD28” value in assay [1] worked out at 0.078. The “CD28 scFv signal” value in [2] stood at 0.671.

B26: Phage-1350 (peptide)
peptide: TCAAGATYLWPTCL
notes: as for B3
For B26, the “Anti-CD28 Fab signal” value in [3] worked out at 0.06. Further, the “Anti-CD28 Fab (SEQ ID NOs: 696, 697) signal” value in assay [4] stood at 1.68.

B27: Phage-448 (peptide)
peptide: MAWCPWASFDECLA
notes: as for B1
As for B27, in [1], the “CD28 scFv signal in presence of CD28” value amounted to 0.109. In addition, the “CD28 scFv signal” value in [2] came to 0.089.

B28: Peptide-271 (peptide)
peptide: EDILCKPKWMCEGF
notes: as for B5
Turning to B28, in [6], the “Off rate t1/2” value came out at 3.3 min. This molecule also returned an EC50 in [7] of 5.7 nM. Further, the IC50 in [8] was found to be 300 nM.

B29: Peptide-274 (peptide)
peptide: ITPVCKPLWMCSGL
notes: as for B5
Turning to B29, the “Off rate t1/2” value in assay [6] stood at 3.3 min. The same molecule displayed an EC50 in [7] of 4 nM. The IC50 in [8] was 330 nM.

B30: Peptide-270 (peptide)
peptide: ESRLCVPAWMCAGF
notes: as for B5
As to B30, in [6], the “Off rate t1/2” value stood at 1.4 min. This molecule showed an EC50 in [7] of 17.3 nM. This molecule also showed an IC50 in [8] of 700 nM.

B31: Phage-1359 (peptide)
peptide: MCSAGAMYKWPLCL
notes: as for B3
For B31, the “Anti-CD28 Fab signal” value in [3] was determined as 0.05. The “Anti-CD28 Fab (SEQ ID NOs: 696, 697) signal” value in [4] was determined as 2.32.

B32: Phage-442 (peptide)
peptide: IYWCPIDRWNDCYN
notes: as for B1
For the molecule B32, the “CD28 scFv signal in presence of CD28” value in [1] worked out at 0.164. In addition, in [2], the “CD28 scFv signal” value turned out to be 0.867.
